Reference: US20210162029A1

Target: T1, KLK14 (UniProt Q9P0G3)
T1 sequence (looked up): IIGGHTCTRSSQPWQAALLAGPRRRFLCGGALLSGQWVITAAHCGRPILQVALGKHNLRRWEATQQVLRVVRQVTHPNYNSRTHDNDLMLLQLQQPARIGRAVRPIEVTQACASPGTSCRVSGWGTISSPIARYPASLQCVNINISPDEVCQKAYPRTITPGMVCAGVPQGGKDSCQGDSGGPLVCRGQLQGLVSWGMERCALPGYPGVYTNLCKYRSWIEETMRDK
Assay: cell-based or functional assay

% inhibition (mean) of KLK14 (30 nM) evoked FLIPR signal in TRPV1 cells; LEKTI D6 at 0.003 µM: -4%
% inhibition (mean) of KLK14 (30 nM) evoked FLIPR signal in TRPV1 cells; LEKTI D6 at 0.01 µM: 21.6%
% inhibition (mean) of KLK14 (30 nM) evoked FLIPR signal in TRPV1 cells; LEKTI D6 at 0.03 µM: -11.1%
% inhibition (mean) of KLK14 (30 nM) evoked FLIPR signal in TRPV1 cells; LEKTI D6 at 0.1 µM: 12.4%
% inhibition (mean) of KLK14 (30 nM) evoked FLIPR signal in TRPV1 cells; LEKTI D6 at 0.3 µM: 16.8%
% inhibition (mean) of KLK14 (30 nM) evoked FLIPR signal in TRPV1 cells; LEKTI D6 at 1 µM: 46.9%
% inhibition (mean) of KLK14 (30 nM) evoked FLIPR signal in TRPV1 cells; LEKTI D6 at 3 µM: 56.4%
% inhibition (mean) of KLK14 (30 nM) evoked FLIPR signal in TRPV1 cells; LEKTI D6 at 10 µM: 39.3%
% inhibition (mean) of KLK14 (30 nM) evoked FLIPR signal in TRPV4 cells; LEKTI D6 at 0.003 µM: -24.1%
% inhibition (mean) of KLK14 (30 nM) evoked FLIPR signal in TRPV4 cells; LEKTI D6 at 0.01 µM: -11%
% inhibition (mean) of KLK14 (30 nM) evoked FLIPR signal in TRPV4 cells; LEKTI D6 at 0.03 µM: 9.9%
% inhibition (mean) of KLK14 (30 nM) evoked FLIPR signal in TRPV4 cells; LEKTI D6 at 0.1 µM: 6.4%
% inhibition (mean) of KLK14 (30 nM) evoked FLIPR signal in TRPV4 cells; LEKTI D6 at 0.3 µM: 1.5%
% inhibition (mean) of KLK14 (30 nM) evoked FLIPR signal in TRPV4 cells; LEKTI D6 at 1 µM: 6.3%
% inhibition (mean) of KLK14 (30 nM) evoked FLIPR signal in TRPV4 cells; LEKTI D6 at 3 µM: 26.7%
% inhibition (mean) of KLK14 (30 nM) evoked FLIPR signal in TRPV4 cells; LEKTI D6 at 10 µM: 73%
B1: LEKTI Domain 6 (protein)
chain: ESGKATSYAELCSEYRKLVRNGKLACTRENDPIQGPDGKVHGNTCSMCEVFFQAEEEEKKKKEGKSRN
